Measured values as given in PMC3495168 (Biology of the cell / under the auspices of the European …, 2011).
Changes are numbered by the printed parent chain. One block for each binder: values may come before it.

Biological target: GST-fused full length CIN85 (human, UniProt Q96B97-1 1-665)
Test: pull-down

Sequence of GST-fused full length CIN85 (Q96B97 whole entry, the tested form may be a part): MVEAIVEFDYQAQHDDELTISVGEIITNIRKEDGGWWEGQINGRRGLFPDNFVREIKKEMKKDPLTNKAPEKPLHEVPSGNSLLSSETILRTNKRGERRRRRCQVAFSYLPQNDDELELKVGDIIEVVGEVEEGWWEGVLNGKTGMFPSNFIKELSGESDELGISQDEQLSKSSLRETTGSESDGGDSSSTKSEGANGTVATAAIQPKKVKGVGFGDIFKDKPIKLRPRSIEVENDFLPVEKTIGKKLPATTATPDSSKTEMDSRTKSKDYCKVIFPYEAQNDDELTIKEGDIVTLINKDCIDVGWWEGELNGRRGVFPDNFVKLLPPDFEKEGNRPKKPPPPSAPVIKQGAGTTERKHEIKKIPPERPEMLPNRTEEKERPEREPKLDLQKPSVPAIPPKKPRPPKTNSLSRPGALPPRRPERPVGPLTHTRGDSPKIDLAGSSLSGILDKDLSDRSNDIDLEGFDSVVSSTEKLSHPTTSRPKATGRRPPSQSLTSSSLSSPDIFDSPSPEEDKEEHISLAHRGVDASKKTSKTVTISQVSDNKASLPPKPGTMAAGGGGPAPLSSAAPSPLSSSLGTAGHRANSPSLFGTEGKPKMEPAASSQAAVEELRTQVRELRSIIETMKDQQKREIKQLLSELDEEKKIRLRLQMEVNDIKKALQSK

EC50: 5.6 ± 0.9 nM
B1: Flag-ARAP1 (natural protein, human, UniProt Q96P48 1-1450, looked up)
chain: MAEAGDAALSVAEWLRALHLEQYTGLFEQHGLVWATECQGLSDTRLMDMGMLLPGHRRRILAGLLRAHTSPAPAPRPTPRPVPMKRHIFRSPPVPATPPEPLPTTTEDEGLPAAPPIPPRRSCLPPTCFTTPSTAAPDPVLPPLPAKRHLAELSVPPVPPRTGPPRLLVSLPTKEEESLLPSLSSPPQPQSEEPLSTLPQGPPQPPSPPPCPPEIPPKPVRLFPEFDDSDYDEVPEEGPGAPARVMTKKEEPPPSRVPRAVRVASLLSEGEELSGDDQGDEEEDDHAYEGVPNGGWHTSSLSLSLPSTIAAPHPMDGPPGGSTPVTPVIKAGWLDKNPPQGSYIYQKRWVRLDTDHLRYFDSNKDAYSKRFISVACISHVAAIGDQKFEVITNNRTFAFRAESDVERKEWMQALQQAMAEQRARARLSSAYLLGVPGSEQPDRAGSLELRGFKNKLYVAVVGDKVQLYKNLEEYHLGIGITFIDMSVGNVKEVDRRSFDLTTPYRIFSFSADSELEKEQWLEAMQGAIAEALSTSEVAERIWAAAPNRFCADCGAPQPDWASINLCVVICKRCAGEHRGLGAGVSKVRSLKMDRKVWTETLIELFLQLGNGAGNRFWAANVPPSEALQPSSSPSTRRCHLEAKYREGKYRRYHPLFGNQEELDKALCAAVTTTDLAETQALLGCGAGINCFSGDPEAPTPLALAEQAGQTLQMEFLRNNRTTEVPRLDSMKPLEKHYSVVLPTVSHSGFLYKTASAGKLLQDRRAREEFSRRWCVLGDGVLSYFENERAVTPNGEIRASEIVCLAVPPPDTHGFEHTFEVYTEGERLYLFGLESAEQAHEWVKCIAKAFVPPLAEDLLARDFERLGRLPYKAGLSLQRAQEGWFSLSGSELRAVFPEGPCEEPLQLRKLQELSIQGDSENQVLVLVERRRTLYIQGERRLDFMGWLGAIQKAAASMGDTLSEQQLGDSDIPVIVYRCVDYITQCGLTSEGIYRKCGQTSKTQRLLESLRQDARSVHLKEGEQHVDDVSSALKRFLRDLPDGLFTRAQRLTWLEASEIEDEEEKVSRYRELLVRLPPVNRATVKALISHLYCVQCFSDTNQMNVHNLAIVFGPTLFQTDGQDYKAGRVVEDLINHYVVVFSVDEEELRKQREEITAIVKMRVAGTASGTQHAGDFICTVYLEEKKAETEQHIKVPASMTAEELTLEILDRRNVGIREKDYWTCFEVNEREEAERPLHFAEKVLPILHGLGTDSHLVVKKHQAMEAMLLYLASRVGDTKHGMMKFREDRSLLGLGLPSGGFHDRYFILNSSCLRLYKEVRSQRPWSGAPETSHRPEKEWPIKSLKVYLGVKKKLRPPTCWGFTVVHETEKHEKQQWYLCCDTQMELREWFATFLFVQHDGLVWPSEPSRVSRAVPEVRLGSVSLIPLRGSENEMRRSVAAFTADPLSLLRNV

fold more GST-CIN85 required for similar binding than for Flag-ARAP1: 8 fold
B2: Flag-[R86/90A]ARAP1 (natural protein, human, UniProt Q96P48 1-1450, looked up)
chain: B1 chain with R86A, R90A
